Experimental data: paper PMC6233088

Assays:
[1] = target: minimal RGA5HMA construct (RGA5 991-1072) (rice) (UniProt F7J0N2); assay: ITC
[2] = target: RGA5_S (RGA5 982-1116), small C-terminal fragment of RGA5 carrying the HMA domain (rice) (UniProt F7J0N2); assay: crystal structure
[3] = target: RGA5_S (RGA5 982-1116), small C-terminal fragment of RGA5 carrying the HMA domain (rice) (UniProt F7J0N2); assay: ITC

| Substance | Kd [1] | stoichiometry N [2] | Kd [3] |
| --- | --- | --- | --- |
| dSP-AVR1-CO39 (AVR1-CO39 with its signal peptide deleted), wild type, recombinant (natural protein) | 7.2 µM | 1 |  |
| dSP-AVR-Pia (AVR-Pia with its signal peptide deleted), recombinant (natural protein) |  |  | 1.8 µM |
